Data as given in paper PMC7525064, “Transcriptome Analysis of Different Tissues Reveals Key Genes Associated With Galanthamine Biosynthesis in Lycoris longituba” (Frontiers in Plant Science, 2020).

Substrate: Oc1ccc(CCNCc2ccc(O)c(O)c2)cc1
Experiment: purified protein
Assay type: biochemical, Lycoris longituba
Settings: 200 μM AdoMet, 50 μM-2 mM norbelladine, 30 mM potassium phosphate pH 8.0, 30°C, 2 h

B1: LlOMT (Lycoris longituba O-Methyltransferase) (Lycoris longituba) (protein)
chain: MGASQDDYALIHKNILHSEDLLKYILETSVYPREHEQLKGLREVTEKHEWSMALVAADEGLFLSMLLKLMNAKRTIEIGVYTGYSLLTTALALPEDGKITAIDVNKSYFEIGLPFIQKAGVEHKINFIESEALPVLDQMLQEMKEEDLYDFAFVDADKPNYANYHERLVKLVRVGGAIVYDNTLWFGTVAFPEYPGLHPEEEECRVSFRNLNKLLAADPRVEISQVSIGDGLTICRRLY
Question: Which Km does the source give for B1 here?
Answer: 317 ± 17 µM
